Reference: publication PMC6135694, “A high-throughput fluorescence polarization assay for discovering inhibitors targeting the DNA-binding domain of signal transducer and activator of transcription 3 (STAT3)”

B1: unlabelled non-consensus DNA 12-mer (dsDNA)
DNA 1: GTACCATGGTAC
DNA 2: GTACCATGGTAC
B2: unlabelled consensus DNA 12-mer (dsDNA)
DNA 1: ATTTCCCGTAAA
DNA 2: TTTACGGGAAAT

Target: STAT3 127-688 (UniProt P40763 127-688)
Assay: competition (fluorescence polarization); competitor vs 20 nM Bodipy-DNA N1, 480 nM protein; 24 hr, 4 C; FP: 20 nM Bodipy-DNA, 480 nM STAT3 127-688, 25 mM Tris pH 8.5 (protein purification and DNA annealing buffer; full assay buffer not in material), NaCl < 200 uM
Conditions: protein: recombinant, blunt

STAT3 127-688, sequence (P40763 127-688): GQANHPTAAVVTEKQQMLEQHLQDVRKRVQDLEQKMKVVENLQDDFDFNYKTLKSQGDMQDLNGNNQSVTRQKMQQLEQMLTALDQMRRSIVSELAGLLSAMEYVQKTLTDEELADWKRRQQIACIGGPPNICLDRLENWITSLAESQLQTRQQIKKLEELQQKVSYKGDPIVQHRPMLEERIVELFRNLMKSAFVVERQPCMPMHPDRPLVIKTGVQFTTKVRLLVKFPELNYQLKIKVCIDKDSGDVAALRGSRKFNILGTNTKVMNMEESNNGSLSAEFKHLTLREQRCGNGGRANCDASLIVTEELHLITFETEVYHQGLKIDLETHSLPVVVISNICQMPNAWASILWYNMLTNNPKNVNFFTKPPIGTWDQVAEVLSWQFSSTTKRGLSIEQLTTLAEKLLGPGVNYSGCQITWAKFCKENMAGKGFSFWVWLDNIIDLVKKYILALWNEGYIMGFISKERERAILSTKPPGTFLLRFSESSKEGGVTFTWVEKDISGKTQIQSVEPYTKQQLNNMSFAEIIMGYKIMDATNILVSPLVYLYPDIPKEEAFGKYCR

| Binder | IC50 (self-complementary, 2 copies of strand) [nM] | IC50 [nM] |
| --- | --- | --- |
| B1 | 2300 ± 660 |  |
| B2 |  | 300 ± 200 |
